According to US12702697B2, “Compositions and methods for treatment of headache disorders and neuropathic pain” (Washington University, priority 2019, dated 2026):

Columns and labels:
[1] = tested on: Treg cells and CD3+ T cells in dura, TG and DRG; assay: Immunohistochemistry of CD3+ T cells and EGFP+ Treg cells in dura, TG, DRG and cervical/medullary dorsal horn; assay type: in vivo, mouse
Procedure: Tissue preparation, immunohistochemistry, and image analysis. Mice were euthanized with i.p. injection of barbiturate (200 mg/kg) and were transcardially perfused with warm 0.1 M phosphate buffered saline (pH 7.2) followed by cold 4% formaldehyde in 0.1 M phosphate buffer (pH 7.2) for fixation. Trigeminal ganglia, lumbar L4 DRG, and the tissues containing the cervical/medullary dorsal horn (from obex to C3 cervical spinal cord) were collected and sectioned at […] in the transverse plane, collected on Superfrost Plus glass slides in sequence and stored at […]
The dura was carefully dissected from the skull using forceps and stained as whole mount. T cells were identified by the rat anti-CD3 antibody (clone 17A2, 1:200; eBioscience, San Diego, CA), and Treg cells were identified with the chicken anti-EGFP (1:1000; AVES Lab, Tigard, OR) antibody in tissues from DEREG mice. […] To quantify CD31 T cells and Treg cells on the dura, we took random, nonoverlapping images (10 per mouse) in areas adjacent to the middle meningeal artery (MMA). To quantify T cells and Treg cells in TG, DRG, and cervical/medullary dorsal horn, all cells on individual sections were counted, and the number was multiplied by 4 to obtain the total number of cells per ganglion in each mouse. […] Representative images were adjusted for contrast and brightness using the same parameter within individual experiments. No other manipulations were made to the images. Image analysis was performed with experimenters blinded to the experimental groups.

[2] = tested on: mTBI-induced memory deficit in mice; assay: Novel object recognition (NOR) assay after mTBI; assay type: in vivo, mouse; details: ld-IL2 between day 6 and 12 post-mTBI
Procedure: The novel object recognition (NOR) assay was used to test the effect of mTBI and ld-IL2 treatment on cognition. On the training day, mice were allowed to explore two identical objects in an arena for 10 minutes. The next day, mice were allowed to explore the same space in the presence of the familiar object and a novel object to test long-term recognition memory. […] After mTBI, mice spent similar amounts of time exploring the familiar and the novel object, indicating a deficit in recognition memory (FIG. 12, mTBI+saline). […] Remarkably, the effect of ld-IL2 on memory deficit lasted for at least 20 days after the cessation of treatment.

[3] = 15 days of ld-IL2, male DEREG mice

B1: ld-IL2: Recombinant mouse IL2 (carrier-free; Biolegend), given as daily low-dose i.p. injection (protein, UniProt P04351 21-169, looked up)
Interleukin-2: APTSSSTSSSTAEAQQQQQQQQQQQQHLEQLLMDLQELLSRMENYRNLKLPRMLTFKFYLPKQATELKDLQCLEDELGPLRHVLDLTQSKSFQLEDAENFISNIRVTVVKLKGSDNTFECQFDDESATVVDFLRRWIAFCQSIISTSPQ
[1]; 15 days of ld-IL2 (5% without)
  frequency of Treg cells among CD3+ cells in the dura: 20%
[1]; 15 days of ld-IL2, female DEREG mice
  increase of the number of EGFP+ Treg cells in the TG: 9 fold
[1]; [3]
  increase in the density of EGFP+ Treg cells in the dura surrounding the MMA: 4 fold
  increase in the number of EGFP+ Treg cells in DRG: 4 fold
[2]
  duration of the effect on memory deficit after cessation of treatment: at least 20 days
  novel object recognition deficit after mTBI: did not exhibit NOR deficit
